The text below walks through data of patent US10876098B2, “Polynucleotide, host cell and a method to recombinantly produce the protein encoded by said polynucleotide having peroxygenative activity” (CONSEJO SUPERIOR DE INVESTIGACIONES CIENTIFICAS (CSIC), priority 2015, dated 2020).

The nature of data set [1]: 4-AAP assay with propranolol in the presence of ascorbic acid (peroxygenase activity). It counts as biochemical. Conditions: 0.2 μM pure variant, 5 mM propranolol, 2 mM H2O2, with and without 4 mM ascorbic acid. As to the method:
FIG. 9 Assay of 4-AAP (4-aminoantipyrine) with different pure UPO variants (AaeUPO1, PaDa-1 and JaWa). […] Each reaction was performed in triplicate.
The mother plates were centrifuged (Eppendorf 5810R centrifuge, Germany) for 10 minutes at 3,500 RPM and 4° C. 20 μL of supernatant of these mother plates were transferred to two replica daughter plates with the help of a Freedom EVO liquid-handling robot (Tecan, Switzerland).
Without ascorbic, the plates were incubated for 30 minutes and with ascorbic for 60 minutes. […] The plates were briefly agitated and absorbance measured at 530 nm, using a plate reader for such purpose ([…]ax Plus 384, Molecular Devices, USA). The values were normalised against the parental of each plate. To rule out false positives, re-screenings were carried out, in addition to a third re-screening wherein kinetic stability was determined (T50) (P. Molina-Espeja, et al. Appl. Environ. Microbiol. 2014. 80, 3496-3507).

Data set [2] can be described thus: Naphthalene transformation reaction analysed by HPLC-PDA. It counts as biochemical. As to the method: A) Products formed after 15 minutes of reaction stopped with 20 μL of HCl 37% (PaDa-I, black bars; JaWa, grey bars). […] C) and D) Monitoring of the reaction for 270 minutes (without adding HCl) for the PaDa-I (C) and JaWa (D) mutants.
The reactions were analysed by means of chromatography in reverse phase (HPLC). The equipment is composed by a tertiary pump (Varian-Agilent Technologies, USA) coupled to an autosampler (Merck Millipore, MA, USA); an ACE C18 PFP column was used for separation (pentafluorophenyl, 15 cm×4.6 cm) at 45° C. and detection was performed using a photodiode detector (PDA) (Varian-Agilent Technologies, USA). The mobile phase selected was 70% methanol and 30% ddH2O (in both cases with 0.1% of acetic acid) at a flow rate of 0.8 mL/min. The reaction was quantified at 268 nm (based on standard HPLCs). […] For long reaction times, the conditions used were those described earlier but without stopping the reaction with HCl. A sample of 10 μL was injected and analysed at different reaction times (from 1 to 270 minutes).

The nature of data set [3]: Thermostability assay (T50), culture supernatants, residual activity with ABTS. It counts as physicochemical. As for the experimental part: An individual S. cerevisiae colony was selected with the corresponding clone (grown in a SC drop-out minimal medium plate: 100 mL of 6.7% yeast nitrogen base, 100 mL of 19.2 g/L uracil-free amino acid supplement, 100 mL of 20% glucose, 1 mL of 25 g/L chloramphenicol and ddH2O up to 1,000 mL) was inoculated in 2 mL of selective minimal medium (as in the SC plate medium, but with 20 g of bacto agar and rafinose instead of galactose) and was incubated for 48 hour at 30° C. and 220 RPM. An aliquot of this culture was taken such that, upon inoculating it in 5 mL of new minimal medium, optical density at 600 nm would have a value of 0.25 (optical density, OD600=0.25). This starter was incubated until completing two full growth cycles (between 6 and 8 hours), at which time 1 mL of cells were taken to inoculate 9 mL of expression medium in a 100 mL flask (OD600=0.1). This culture of each clone was incubated for 72 hours at 25° C. and 220 RPM (at peak UPO activity; OD600=25-30), the cells were separated by centrifugation (10 minutes at 4,500 RPM and 4° C.) and supernatant was filtered (using a glass and nitrocellulose filter with a pore size of 0.45 μm). Appropriate dilutions of the supernatants were prepared so that aliquots of 20 μL would give rise to a linear response in kinetic mode. 50 μL of supernatant were used for each point in a temperature gradient created by means of thermocyclator, from 30 to 80° C. After incubating for 10 minutes, the aliquots were cooled in ice for 10 minute and tempered at room temperature for 5 minutes. […] The thermostability values were calculated in accordance with the ratio between the residual activities incubated at different temperatures and the value of initial activity at room temperature. The value of T50 was determined as the value of the temperature at which the protein loses 50% of it initial activity after incubating for 10 minutes.
An individual S. cerevisiae colony was selected with the corresponding clone (grown on a SC drop-out minimal medium plate: 100 mL of 6.7% yeast nitrogen base, 100 mL of 19.2 g/L uracil-free amino acid supplement, 100 mL of 20% glucose, 1 mL of 25 g/L chloramphenicol and ddH2O up to 1,000 mL), was inoculated in 3 mL of selective minimal medium (like the SC plate medium, but with 20 g of bacto agar and rafinose instead of galactose) and incubated for 48 hours at 30° C. and 220 RPM. […] The thermostability values were calculated in accordance with the ratio between the residual activities incubated at different temperatures and the value of initial activity at room temperature. The value of T50 was determined as as the temperature value at which the protein loses 50% of its initial activity after incubating for […].

[4] abbreviates: 15 minutes of reaction stopped with HCl.
[5] abbreviates: 15 minutes of reaction stopped with HCl, 6.6 nM enzyme, 1 mM naphthalene, 1 mM H2O2.

B1: JaWa: PaDa-I variant with added mutations G241D and R257K, SEQ ID NO: 24 (protein)
chain: MKYFPLFPTLVYAVGVVAFPDYASLAGLSQQELDAIIPTLEAREPGLPPGPLENSSAKLVNDEAHPWKPLRPGDIRGPCPGLNTLASHGYLPRNGVATPAQIINAVQEGFNFDNQAAIFATYAAHLVDGNLITDLLSIGRKTRLTGPDPPPPASVGGLNEHGTFEGDASMTRGDAFFGNNHDFNETLFEQLVDYSNRFGGGKYNLTVAGELRFKRIQDSIATNPNFSFVDFRFFTAYGETTFPANLFVDGRRDDGQLDMDAARSFFQFSRMPDDFFRAPSPRSDTGVEVVVQAHPMQPGKNVGKINSYTVDPTSSDFSTPCLMYEKFVNITVKSLYPNPTVQLRKALNTNLDFLFQGVAAGCTQVFPYGRD
Regarding B1, in data set [1], the “activity against propranolol in 4-AAP assay among pure UPO variants” value was “greatest activity against propranolol”. For the same molecule, in data set [2] (setting [4]), the “1,4-naphthoquinone (oxidation product) detected” value is “without detectable traces of 1,4-naphthoquinone” and the “increase in the production of 1-naphthol, more than PaDa-I” value amounted to 156%. For the same molecule, in data set [2] (setting [5]), the “regioselectivity, 1-naphthol” value is recorded as 92% and the “regioselectivity, 2-naphthol” value is given as 8%. Besides, in data set [2] (270 minute reaction at pH 7.0), the “time at which formation of the epoxide intermediary reached its maximum” value is around 40 min. Further, the “production of 1-naphthol” value in data set [2] (270 minutes at pH 7.0 without stopping the reaction) was 0.32 mM. Also, the “total turnover numbers (TTN), 1-naphthol” value in data set [2] (calculated using the production value of 1-naphthol after 270 minutes) is given as ~50,000 μmoles of product/μmoles of en. Further, in data set [2] (long reaction times, 270 minutes at pH 7.0 without stopping the reaction), the “regioselectivity against 1-naphthol” value was 97%. For the same molecule, the “Thermal stability, T50” value in data set [3] (culture supernatants, temperature at which the enzyme retains 50% of its activity after 10 minutes of incubation) came out at 59.7 °C. For the same molecule, the “increase in thermostability (T50) with respect to PaDa-I” value in data set [3] (versus PaDa-I variant) was 2 °C.
